Data: patent publication US20220048991A1 (BIOND BIOLOGICS, published 2022)
Numbering of substitutions follows the chain as printed. Names and notes keep the numbering of the source.

T1: PIRB (UniProt P97484 25-642, limits assumed)
T1 sequence (looked up): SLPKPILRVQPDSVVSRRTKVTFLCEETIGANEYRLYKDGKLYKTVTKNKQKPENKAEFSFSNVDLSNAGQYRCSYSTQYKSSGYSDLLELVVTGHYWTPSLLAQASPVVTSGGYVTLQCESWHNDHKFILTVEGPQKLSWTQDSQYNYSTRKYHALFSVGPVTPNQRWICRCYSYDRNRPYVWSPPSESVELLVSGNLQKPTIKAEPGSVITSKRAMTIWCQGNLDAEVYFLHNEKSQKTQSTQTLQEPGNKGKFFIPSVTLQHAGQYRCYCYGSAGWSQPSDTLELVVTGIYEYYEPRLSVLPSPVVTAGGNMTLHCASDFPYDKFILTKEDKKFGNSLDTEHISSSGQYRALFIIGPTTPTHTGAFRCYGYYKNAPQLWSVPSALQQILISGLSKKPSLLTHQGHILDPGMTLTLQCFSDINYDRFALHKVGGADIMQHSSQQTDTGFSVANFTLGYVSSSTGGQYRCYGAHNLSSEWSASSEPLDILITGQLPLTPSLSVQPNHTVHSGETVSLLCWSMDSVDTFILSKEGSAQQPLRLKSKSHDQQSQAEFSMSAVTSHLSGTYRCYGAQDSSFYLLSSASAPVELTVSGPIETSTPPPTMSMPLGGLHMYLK

B1: chimeric 19E3 (antibody, V domains shown)
VH: QVQLQQSGAELARPGASVKLSCKASGYTFTSYGISWVKQRTGQGLEWVGEIYPGSGNSYYNEKFKGKATLTADKSSSTAYMELRSLTSEDSAVYFCARSNDGYPDYWGQGTTLTVSS
VL: DIQMTQSSSYLSVSLGGRVTITCKASDHINNWLAWYQQKPGNAPRLLISGATSLETGVPSRFSGSGSGKDYTLSITSLQTEDVATYYCQQYWSTPWTFGGGTKLEIK
notes: Chimera of murine 19E3; also called chimeric murine 19E3
B2: 15G8-13 (humanized 15G8, VH1/Vk3, alanine variant A108) (antibody, human IgG4 S228P, kappa, V domains shown)
VH: DVQLQGSGPGLVKPSETLSLTCSVTGYSITSGYYWNWIRQFPGKKLEWMGYISYDGSNNYNPSLKNRITISRDTSKNQFSLKLNSVTAADTATYYCAHGYSYYYAMDAWGQGTSVTVSS
VL: DIQMTQSPSSLSASVGDRVTITCRTSQDISNYLNWYQQKPGKAVKLLISYTSRLHSGVPSRFSGSGSGTDYTLTISSLQPEDFATYYCQQGNTLPTFGQGTKLEIKR
notes: Humanized IgG4 (S228P, L235E), kappa; also called 15G8 humanized antibody; BND-22
B3: chimeric 15G8 antibody (antibody, V domains shown)
VH: B2 VH with E16Q, T17S, K44N, T69S, S71T, S80F, A88S, A89E, A108C
VL: DIQMTQTTSSLSASLGDRVTISCRTSQDISNYLNWYQQKPDGTVKLLISYTSRLHSGVPSRFSGSGSGTDYSLTISNLEQEDIATYFCQQGNTLPTFGSGTKLEIK
notes: Chimeric form of murine 15G8

What was measured:
[1] = molecular target: T2, recombinant ILT2 (human) (human, UniProt Q8NHL6 24-461); assay: binding ELISA, hILT2-Fc; positive control is GHI/75 by paragraph 244
T2 construct: also called recombinant ILT2 peptide; ILT2 protein
T2 sequence (Q8NHL6 24-461 limits assumed): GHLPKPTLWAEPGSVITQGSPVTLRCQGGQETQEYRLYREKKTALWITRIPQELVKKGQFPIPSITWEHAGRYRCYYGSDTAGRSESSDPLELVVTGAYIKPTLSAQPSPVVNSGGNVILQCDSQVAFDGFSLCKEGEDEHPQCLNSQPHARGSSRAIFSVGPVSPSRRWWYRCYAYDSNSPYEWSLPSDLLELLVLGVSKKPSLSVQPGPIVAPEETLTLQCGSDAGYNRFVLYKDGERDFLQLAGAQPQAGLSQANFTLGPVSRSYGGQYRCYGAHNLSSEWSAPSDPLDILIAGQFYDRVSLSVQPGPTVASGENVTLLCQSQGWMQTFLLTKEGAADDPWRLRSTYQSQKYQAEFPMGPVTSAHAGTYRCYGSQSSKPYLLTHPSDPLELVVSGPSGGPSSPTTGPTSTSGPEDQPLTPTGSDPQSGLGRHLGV

[2] = molecular target: T1, PIRB; assay: binding ELISA, column PIRB; negative control
[3] = molecular target: T2, recombinant ILT2 (human); assay: binding ELISA, hILT2-Fc; negative control
[4] = molecular target: ILT6 (UniProt Q8N6C8 24-439, limits assumed); assay: binding ELISA, column hILT6-His; negative control
Sequence of ILT6 (Q8N6C8 24-439 limits assumed): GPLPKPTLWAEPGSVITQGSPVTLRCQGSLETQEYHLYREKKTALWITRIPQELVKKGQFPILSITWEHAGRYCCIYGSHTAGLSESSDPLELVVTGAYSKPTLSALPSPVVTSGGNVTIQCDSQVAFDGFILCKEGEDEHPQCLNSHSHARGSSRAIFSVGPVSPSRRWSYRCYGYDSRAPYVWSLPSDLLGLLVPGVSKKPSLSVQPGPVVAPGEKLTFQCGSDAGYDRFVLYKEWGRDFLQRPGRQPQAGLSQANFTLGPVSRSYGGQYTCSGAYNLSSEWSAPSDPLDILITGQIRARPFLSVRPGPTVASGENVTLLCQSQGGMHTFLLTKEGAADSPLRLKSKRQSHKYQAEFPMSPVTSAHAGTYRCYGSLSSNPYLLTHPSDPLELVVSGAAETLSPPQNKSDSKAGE

[5] = molecular target: LILRA1 (UniProt O75019 17-461, limits assumed); assay: binding ELISA, column hLILRA1-His; negative control
Sequence of LILRA1 (O75019 17-461 limits assumed): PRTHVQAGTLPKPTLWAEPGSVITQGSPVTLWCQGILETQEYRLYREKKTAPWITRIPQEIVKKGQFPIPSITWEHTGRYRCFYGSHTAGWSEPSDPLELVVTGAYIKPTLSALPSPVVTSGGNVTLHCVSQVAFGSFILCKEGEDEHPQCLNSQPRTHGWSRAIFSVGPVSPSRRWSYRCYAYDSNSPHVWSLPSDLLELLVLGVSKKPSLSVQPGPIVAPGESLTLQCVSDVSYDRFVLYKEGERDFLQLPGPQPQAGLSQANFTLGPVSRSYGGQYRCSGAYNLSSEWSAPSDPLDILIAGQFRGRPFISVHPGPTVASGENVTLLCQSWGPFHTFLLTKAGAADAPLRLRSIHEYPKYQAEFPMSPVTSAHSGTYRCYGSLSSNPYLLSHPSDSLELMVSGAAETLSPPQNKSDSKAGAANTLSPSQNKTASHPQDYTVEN

[6] = molecular target: T3, biotinylated recombinant human ILT2-Fc (human, UniProt Q8NHL6 24-458, limits assumed, conjugated with biotin (sites not given)); assay: flow cytometry blocking assay: ILT2-biotin binding to cells expressing HLA-G [left panel]
T3 construct: Bought (Sino Biologics); the order of the parts is therefore uncertain; also called ILT2-biotin; biotinylated ILT2; not shown: Fc portion of human IgG1
T3 sequence (Q8NHL6 24-458 limits assumed): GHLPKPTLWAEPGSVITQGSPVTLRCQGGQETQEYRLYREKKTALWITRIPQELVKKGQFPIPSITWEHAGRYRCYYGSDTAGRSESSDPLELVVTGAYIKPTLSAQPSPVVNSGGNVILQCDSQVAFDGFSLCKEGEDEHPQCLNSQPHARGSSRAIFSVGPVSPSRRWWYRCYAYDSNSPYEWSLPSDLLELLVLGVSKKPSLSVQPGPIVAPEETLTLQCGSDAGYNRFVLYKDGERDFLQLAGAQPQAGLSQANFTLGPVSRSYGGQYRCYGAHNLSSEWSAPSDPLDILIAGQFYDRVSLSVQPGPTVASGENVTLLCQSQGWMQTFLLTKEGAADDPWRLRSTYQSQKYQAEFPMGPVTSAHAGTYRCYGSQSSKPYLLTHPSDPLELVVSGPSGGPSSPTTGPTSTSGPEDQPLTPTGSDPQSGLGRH
Experimental: (§1) Flow cytometry blocking assay—Recombinant human ILT2 protein fused with the Fc portion of human IgG1 at the N terminal was conjugated with biotin (Innova bioscience). A total of 5×10⁵ A375/HLA-G1 cells were incubated in a volume of 100 μL in the presence of anti-ILT2 clone #1 or isotype matched control mAb and ILT2-Fc conjugated with biotin (10 μg/mL) for 30 minutes at room temperature. After several washing steps, streptavidin-PE was added at a final concentration of 0.2 μg/mL and incubated for 30 min on ice followed by FACS analysis.
(§2) The ability of the generated anti-ILT2 antibodies to block the interaction between HLA-G and ILT2 was tested using four different assays. First, a blocking flow cytometry assay was performed. HLA-G transfected A375 cells were incubated with biotinylated ILT2 in the presence of the antibodies of the present disclosure and a positive control antibody. The commercially available anti-ILT2 antibody GHI/75 (BioLegend, Cat. No. 333704) was used as the positive control. The binding of ILT2-biotin to the cells was determined using Streptavidin-PE by flow cytometry analysis (FIG. 8A). The percent of blocking was determined by normalizing to a negative control (ILT2 binding in the presence of control IgG). […] The percentage of blocking was calculated at various concentrations of antibody (FIG. 8C).

[7] = molecular target: T4, human ILT2 fused to mouse CD3 zeta chain, on BW cells (human; mouse); assay: flow cytometry on BW cells transfected with human ILT2; fold above background (FAB) [left panel]
T4 construct: domain: trans-membrane and cytoplasmic residues; also called BW-ILT2; BW/ILT2z
T4 sequence (P24161 other isoform, or with tags, fused parts or gaps limits assumed): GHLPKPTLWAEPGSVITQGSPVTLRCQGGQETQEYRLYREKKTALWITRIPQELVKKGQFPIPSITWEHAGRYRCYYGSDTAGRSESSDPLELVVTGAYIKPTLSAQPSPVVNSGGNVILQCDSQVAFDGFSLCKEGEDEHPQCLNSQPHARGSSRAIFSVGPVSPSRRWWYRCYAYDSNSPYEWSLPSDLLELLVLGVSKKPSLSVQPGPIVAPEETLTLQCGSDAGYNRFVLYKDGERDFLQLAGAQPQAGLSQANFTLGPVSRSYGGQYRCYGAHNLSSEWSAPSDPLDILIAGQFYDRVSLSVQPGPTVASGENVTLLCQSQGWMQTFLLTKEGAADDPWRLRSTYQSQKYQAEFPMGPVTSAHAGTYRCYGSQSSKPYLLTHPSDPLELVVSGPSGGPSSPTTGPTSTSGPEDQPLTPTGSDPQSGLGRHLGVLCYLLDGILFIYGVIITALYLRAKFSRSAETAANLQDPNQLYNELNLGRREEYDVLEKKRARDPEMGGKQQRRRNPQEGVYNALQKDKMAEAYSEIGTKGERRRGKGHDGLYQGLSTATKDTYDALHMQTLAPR

[8] = molecular target: T4, human ILT2 fused to mouse CD3 zeta …; assay: cell-based or functional assay
[9] = molecular target: T2, recombinant ILT2 (human); assay: SPR (Biacore T200); KD relative to Control (chimeric 15G8)
Experimental: (§3) During grafting of the 15G8 CDRs, five heavy chains and four kappa light chains were generated. These chains were designated VH1-5 and Vk1-4. By combining each heavy chain with each light chain twenty different resultant antibodies are possible. All twenty possible antibodies were transiently expressed in HEK EBNA cells, and the supernatants were tested for binding to recombinant ILT2 peptide using a Biacore T200. The chimeric 15G8 antibody was used as control.

[10] = molecular target: T2, recombinant ILT2 (human); assay: SPR (Biacore T200), HEK EBNA supernatants on recombinant ILT2 peptide
Experimental: as §3

[11] = molecular target: T3, biotinylated recombinant human ILT2-Fc; assay: flow cytometry blocking assay: ILT2-biotin binding to cells expressing HLA-G
Experimental: as §1, §2

[12] = molecular target: T3, biotinylated recombinant human ILT2-Fc; assay: flow cytometry blocking assay: ILT2-biotin binding to cells expressing HLA-G [right panel]
Experimental: as §1, §2

[13] = molecular target: T3, biotinylated recombinant human ILT2-Fc; assay: B2M blocking ELISA: plate-bound recombinant human B2M-His, biotinylated ILT2-Fc at 20 µg/ml, titrated antibody, streptavidin-HRP; blocked ligand B2M
Experimental: To test whether 15G8 can block the interaction between ILT2 and B2M, a B2M blocking ELISA was performed. 96 well nickel plates were coated with recombinant human B2M-His tag (3 μg/ml; Sino Biologics, 11976-H08H) overnight. Biotinylated ILT2-Fc (20 μg/ml; Sino Biologics, 1614-H02H; Innova Biosciences, 370-0010) was added for 2 hours at 37° C., which allowed ILT2 binding to B2M, in the presence or absence of titrated BND-22 or an irrelevant antibody (anti human CD28, Biolegend, 302934) (Ab range of 80-0.1 μg/ml, ×3 fold). ILT2 binding to B2M was detected by HRP conjugated streptavidin (R&D Systems, DY998). The absorbance was measured using an ELISA Reader (Biotek Synergy-H1 plate reader).

Relative KD [9] | Kd [10] [nM] | koff [10] [s⁻¹] | kon [10] [M⁻¹ s⁻¹] | IC50 (read off the curve) [12] [mg/L] | further results | Molecule
 |  |  |  |  | ELISA (OD) [1]: 2.45 OD | GHI/75 (commercial mouse anti-human ILT2 antibody, BioLegend Cat. No. 333704)
 |  |  |  |  | ELISA (OD) [2]: 0.0575 OD; ELISA (OD) [3]: 0.05 OD; ELISA (OD) [4]: 0.071 OD; ELISA (OD) [5]: 0.13 OD | Negative
 |  |  |  |  | IC50 (read off the curve) [6]: ~0.6 mg/L; EC50 (read off the curve) [7]: ~0.6 mg/L | B1
0.55 | 6.94 | 0.00905 | 1.3e+06 | ~0.2 | IC50 (read off the curve) of Blocking (%) in the BW-ILT2 / A375-HLA-G mouse IL-2 reporter assay [8]: ~0.02 mg/L; IC50 (read off the curve) [11]: ~0.3 mg/L; IC50 (read off the curve) [13]: ~8 mg/L | B2
1 | 12.6 | 0.0102 | 808000 | ~0.2 |  | B3
